Experimental data reported in the supplement of paper PMC7877785.
± gives the uncertainty stated by the source.

Test: self-splicing fitness, log relative to wild type (ln ratio); higher = more splicing; Tetrahymena group I intron in knt gene, E. coli kanamycin selection, DiMSum; sequences stand for … in CUCUCU…GGAGGGAAAAGUUAUCAGGCAUGCACCUGGUAGCUAGUCUUUAAACCAAUAGAUUGCAUCGGUUUAAAAGGCAAGACCGUCAAAUUGCGGGAAAGGGGUCAACAGCCGUUCAGUACCAAGUCUCAGGGGAAACUUUGAGAUGGCCUUGCAAAGGGUAUGGUAAUAAGCUGACGGACAUGGUCCUAACCACGCAGCCAAGUCCUAAGUCAACAGAUCUUCUGUUGAUAUGGAUGCAGUUCACAGACUAAAUGUCGGUCGGGGAAGAUGUAUUCUUCUCAUAAGAUAUAGUCGGACCUCUCCUUAAUGGGAGCUAGCGGAUGAAGUGAUGCAACACUGGAGCCGCUGGGAACUAAUUUGUAUGCGAAAGUAUAUUGAUUAGUUUUGGAGUACUCGUGGUCG
In short: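 Colonies from six replicate transformations of E. coli BL21(DE3) were pooled and amplicon-sequenced on an Illumina HiSeq 2500. The library placed an intron with all eight P1ex-region nucleotides randomised inside the knt kanamycin-resistance gene on pET-22b(+), and cells grew overnight at 37°C or 30°C on LB agar with or without 25 μg/mL kanamycin (plus 100 μg/mL carbenicillin, 50 μM IPTG, 0.2% rhamnose). Fitness is the DiMSum error-weighted combination of wild-type-normalised replicate fold changes, kanamycin versus none.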

Sequence	self-splicing fitness (ln) (30 °C)	self-splicing fitness (ln) (37 °C)
CUAAAGCAAUAUUACGCUUG	-2.8 ± 0.15	-1.58 ± 0.17
CUAAAGCAAUAUUACGGAUG	-0.152 ± 0.049	-0.202 ± 0.069
CUAAAGCAAUAUUACGGCCU	-3.01 ± 0.15	-2.5 ± 0.28
CUAAAGCAAUAUUACGGGAA	-3.28 ± 0.2	-2.1 ± 0.17
CUAAAGCAAUAUUACGGGGG	-1.87 ± 0.13	-1.15 ± 0.13
CUAAAGCAAUAUUACGGGGU	-3.19 ± 0.14	-2.94 ± 0.17
CUAAAGCAAUAUUACGGUAG	-0.409 ± 0.043	-0.0448 ± 0.059
CUAAAGCAAUAUUACGGUCG	0.0851 ± 0.065	0.151 ± 0.086
CUAAAGCAAUAUUACGGUUG	-0.57 ± 0.056	-0.138 ± 0.081
CUAAAGCAAUAUUACGUAUA	-3.23 ± 0.14	-3.09 ± 0.28
CUAAAGCAAUAUUACGUCAG	-0.715 ± 0.064	0.333 ± 0.1
CUAAAGCAAUAUUACGUGGC	-2.9 ± 0.12	-2.05 ± 0.15
CUACAGCAAUAUUACGAAGA	-3.21 ± 0.45	-2.56 ± 0.41
CUACAGCAAUAUUACGAAUU	-3.04 ± 0.14	-2.94 ± 0.24
CUACAGCAAUAUUACGACUA	-2.2 ± 0.23	-2.38 ± 0.35
CUACAGCAAUAUUACGACUU	-3.83 ± 0.32	-2.81 ± 0.35
CUACAGCAAUAUUACGAGAU	-4.21 ± 0.37	-2.96 ± 0.28
CUACAGCAAUAUUACGAGCC	-2.24 ± 0.24	-1.88 ± 0.31
CUACAGCAAUAUUACGAGGA	-3.4 ± 0.2	-3.21 ± 0.27

Sequence	self-splicing fitness (ln) (30 °C)	self-splicing fitness (ln) (37 °C)
CUACAGCAAUAUUACGAUGA	-3.02 ± 0.19	-2.13 ± 0.14
CUACAGCAAUAUUACGAUGU	-3.46 ± 0.17	-2.44 ± 0.19
CUACAGCAAUAUUACGCACA	-3.12 ± 0.2	-3.29 ± 0.27
CUACAGCAAUAUUACGCCAA	-3.32 ± 0.17	-3.04 ± 0.25
CUACAGCAAUAUUACGCCCA	-2.99 ± 0.27	-1.85 ± 0.23
CUACAGCAAUAUUACGCCUA	-2.46 ± 0.18	-3.31 ± 0.28
CUACAGCAAUAUUACGCGCC	-3.98 ± 0.35	-2.3 ± 0.41
CUACAGCAAUAUUACGCGCU	-3.59 ± 0.28	-1.5 ± 0.23
CUACAGCAAUAUUACGCGUA	-3.72 ± 0.31	-2.84 ± 0.3
CUACAGCAAUAUUACGCUUC		-2.88 ± 0.44
CUACAGCAAUAUUACGGACA	-1.52 ± 0.39	-2.47 ± 0.38
CUACAGCAAUAUUACGGCAG	-1.07 ± 0.063	-0.452 ± 0.088
CUACAGCAAUAUUACGGCGA	-2.97 ± 0.39	-2.91 ± 0.27
CUACAGCAAUAUUACGGUUA	-0.432 ± 0.092	0.11 ± 0.1
CUACAGCAAUAUUACGUAAA	-3.13 ± 0.16	-1.92 ± 0.17
CUACAGCAAUAUUACGUCUA	-3.21 ± 0.24	-3.04 ± 0.33
CUACAGCAAUAUUACGUCUC	-3.38 ± 0.18	-2.55 ± 0.3
CUACAGCAAUAUUACGUGUA	-3.12 ± 0.14	-2.93 ± 0.16
CUACAGCAAUAUUACGUGUU	-3.08 ± 0.16	-2.94 ± 0.15
